# From PMC446230
# What was measured:
# [1] = biological target: DC-SIGN (DC-specific intercellular adhesion molecule-3 (ICAM-3)-grabbing nonintegrin) on K562/DC-SIGN cells (human) (UniProt Q9NNX6); experiment: virus adhesion to cells, captured virus measured by p24 ELISA
# [2] = biological target: DC-SIGN (DC-specific intercellular adhesion molecule-3 (ICAM-3)-grabbing nonintegrin) on Raji/DC-SIGN cells (human) (UniProt Q9NNX6); experiment: as above
substance,measurement,setting,value
R5-tropic HIV-1ADA envelope glycoprotein on pseudotyped HIV-Luc/ADA particles (natural protein),fold HIV-1 binding relative to the parental cells,[1],1.8 fold
same,fold HIV-1 binding relative to the parental cells,[2],1.5 fold
